Test results reported in PMC13260207.

Columns and labels:
[1] = biological target: recombinant PI4KIIα (lab-made) (human) (UniProt Q9BTU6); experiment: MST; fluorescently labelled PI4KIIα (5 nM) mixed with 1 μM PI (micelles) before the ligand protein, unlabelled ligand titrated; Tris-based MST buffer; Monolith NT.115 pico
[2] = biological target: recombinant PI4KIIα (lab-made) (human) (UniProt Q9BTU6); experiment: MST; fluorescently labelled PI4KIIα (5 nM) constant, unlabelled ligand protein titrated; Tris-based MST buffer; Monolith NT.115 pico; no PI

Sequence of UniProt Q9BTU6 (Q9BTU6 whole entry): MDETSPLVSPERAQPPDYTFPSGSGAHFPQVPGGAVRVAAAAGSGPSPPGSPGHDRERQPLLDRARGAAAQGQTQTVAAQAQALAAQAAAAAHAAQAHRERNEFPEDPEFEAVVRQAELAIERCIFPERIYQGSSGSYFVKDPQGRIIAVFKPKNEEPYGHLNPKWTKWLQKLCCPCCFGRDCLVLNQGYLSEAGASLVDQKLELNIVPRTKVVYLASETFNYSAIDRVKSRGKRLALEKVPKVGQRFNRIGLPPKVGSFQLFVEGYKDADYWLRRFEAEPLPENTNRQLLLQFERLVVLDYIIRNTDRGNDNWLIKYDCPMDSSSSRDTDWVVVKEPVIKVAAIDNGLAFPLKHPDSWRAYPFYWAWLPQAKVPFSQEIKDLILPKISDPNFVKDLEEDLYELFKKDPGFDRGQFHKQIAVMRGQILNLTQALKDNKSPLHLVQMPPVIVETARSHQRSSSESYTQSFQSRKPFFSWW

Kd [1] [nM]	Kd [2] [nM]	Substance
113	263	recombinant PITPβ (#LS-C794864, LSBio) (from UniProt P48739 1-271) (natural protein)
–	189	recombinant PITPα (#ab101666, Abcam) (from UniProt Q00169 1-270) (natural protein)
